Patent US20040208880A1

Molecular target: GFP-tagged Pak1 (human) (UniProt Q13153)
Assay: cell-based or functional assay

GFP-tagged Pak1 (human), sequence (Q13153 whole entry A26V/E503D): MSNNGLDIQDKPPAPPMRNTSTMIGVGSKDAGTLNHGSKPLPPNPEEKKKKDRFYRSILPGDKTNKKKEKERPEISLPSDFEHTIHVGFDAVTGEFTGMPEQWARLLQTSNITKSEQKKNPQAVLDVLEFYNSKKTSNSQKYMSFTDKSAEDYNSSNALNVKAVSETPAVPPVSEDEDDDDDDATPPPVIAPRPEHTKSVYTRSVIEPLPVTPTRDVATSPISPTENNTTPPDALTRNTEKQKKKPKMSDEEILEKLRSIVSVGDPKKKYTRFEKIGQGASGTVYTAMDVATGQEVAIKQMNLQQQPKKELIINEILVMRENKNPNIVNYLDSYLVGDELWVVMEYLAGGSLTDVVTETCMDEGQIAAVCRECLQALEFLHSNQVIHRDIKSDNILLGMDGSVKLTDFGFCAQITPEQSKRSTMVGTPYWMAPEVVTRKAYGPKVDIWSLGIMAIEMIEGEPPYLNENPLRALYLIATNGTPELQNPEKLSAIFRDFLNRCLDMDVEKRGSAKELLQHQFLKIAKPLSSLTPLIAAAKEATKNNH

vesicle formation (macropinocytosis), confocal microscopy of cotransfected SKBR3 cells (% of the transfected cells): > 80
Substance: RFP-DLC1-1-66 (from UniProt P61273 1-66)
